In patent publication US20140147490A1, “HLA CLASS I A2 TUMOR ASSOCIATED ANTIGEN PEPTIDES AND VACCINE COMPOSITIONS” (priority 2012, published 2014):

T1: HLA-A*6802 (human, UniProt P30375 25-308 (Gorilla gorilla entry), limits assumed)
T1 construct: purified HLA molecule; b2m and chain limits not described
T1 MHC heavy: not shown


What was measured:
[1] = system: patients with recurrent or residual cervical carcinoma; details: cited from earlier work
HLA-A*6802 [2] = target: T1, HLA-A*6802; assay: competitive binding assay, purified HLA
HLA-A*6802 [3] = target: T1, HLA-A*6802; assay: competitive inhibition assay, purified HLA

Row | IC50 (HLA-A*6802 [2]) | IC50 (HLA-A*6802 [3]) | Molecule | responding patients ([1]; 95% interval 10-65%) | safety ([1]; immunocompromised cervical carcinoma patients)
1 |  |  | aKXVAAWTLKAAa-NH2 [PADRE] | 33% | favorable safety profile
2 | 2000 nM | 2000 nM | VVLGVVFGI (native HER2/neu peptide) [Her2/neu.665] |  | 
3 |  | 1140 nM | HLYQGCQVV (native HER2/neu peptide) [Her2/neu.48] |  | 
